According to paper PMC4186968, “Molecular Basis for Coordinating Transcription Termination with Noncoding RNA Degradation” (Molecular Cell, 2014):
Where no end group is shown, it is not given here.

B1: Nrd1p CID (residues 1-153) (domain or fragment)
chain: MQQDDDFQNFVATLESFKDLKSGISGSRIKKLTTYALDHIDIESKIISLIIDYSRLCPDSHKLGSLYIIDSIGRAYLDETRSNSNSSSNKPGTCAHAINTLGEVIQELLSDAIAKSNQDHKEKIRMLLDIWDRSGLFQKSYLNAIRSKCFAMD

Key:
[1] = target: Nrd1p CID (residues 1-153) (UniProt P53617); experiment: fluorescence anisotropy (FA) equilibrium binding
Nrd1p-Nab3p = experiment: Electromobility shift assay of Nrd1p-Nab3p binding to RNA substrates; parameters: species or system S. cerevisiae; details: EMSA as for wt RNA; not accurately determined due to poor fit of the curve; estimated by graphical interpolation; read-out: Affinity of Nrd1p-Nab3p for RNA, estimated by graphical interpolation
Description: Figure S6: Related to figure 6. A. Coomassie stained SDS-PAGE showing 10 pmol of each protein preparation used (50 pmol of the CID). Asterisks indicate proteolytic fragments of Air2p (deletions at the C-terminal unstructured region) and Nrd1-ΔCIDp (N-terminal truncation) that constitutes approximately 20% of the full-length protein. M: molecular weight marker. B. Analysis of Nrd1p-Nab3p binding to either the wt RNA, containing motifs required for high-affinity RNA-binding (open boxes), or a mutant variant harboring point mutations designed to disrupt all motifs (mutations underlined). The plots correspond to affinity curves generated by the Prism software from values derived from three independent electromobility shift assays (see supplemental experimental procedures). Bars denote standard deviations.
The affinity for the mutant RNA could not be accurately determined due to the poor fit of the curve but it was estimated to be approximately 45 nM by graphical interpolation. C. Polyadenylation assays using the wt and the mutant RNAs as substrates to test whether high-affinity RNA-binding by Nrd1p-Nab3p is required for stimulation of polyadenylation. Panels correspond to different gels.
(1 picture or pasted object on this page, not shown here) […]
for Nrd1 and Nab3) and stored at -80 °C. […]
average of three measurements. The experimental binding isotherms were analyzed by non- […]

[2] = target: T1, FAM-labeled Trf4p NIM peptide; experiment: fluorescence anisotropy (FA) equilibrium binding; details: chain shown with the change
T1 chain: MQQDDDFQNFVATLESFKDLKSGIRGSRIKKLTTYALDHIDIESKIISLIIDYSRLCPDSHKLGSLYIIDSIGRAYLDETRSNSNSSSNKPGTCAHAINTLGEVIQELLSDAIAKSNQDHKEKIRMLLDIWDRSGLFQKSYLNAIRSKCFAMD

[3] = target: T2, Nrd1p CID (residues 1-153), P53617; experiment: fluorescence anisotropy (FA) equilibrium binding; details: chain shown with the change
T2 chain: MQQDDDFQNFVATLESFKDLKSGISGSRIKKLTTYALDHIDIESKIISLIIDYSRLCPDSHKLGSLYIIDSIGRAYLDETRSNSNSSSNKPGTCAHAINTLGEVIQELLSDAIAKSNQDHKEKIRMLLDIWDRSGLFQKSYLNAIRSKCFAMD

[4] = target: T3, FAM-labeled Trf4p NIM peptide; experiment: fluorescence anisotropy (FA) equilibrium binding; details: chain shown with the change
T3 chain: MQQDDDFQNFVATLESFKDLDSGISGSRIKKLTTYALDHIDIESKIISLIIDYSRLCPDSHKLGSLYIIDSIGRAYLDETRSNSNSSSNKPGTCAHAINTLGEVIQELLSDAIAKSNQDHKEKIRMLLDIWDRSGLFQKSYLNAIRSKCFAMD

[5] = target: FAM-labeled Trf4p NIM peptide (S. cerevisiae); experiment: fluorescence polarisation; fluorescence anisotropy; fluorescently labeled peptide titrated with Nrd1p CID; equilibrium binding in solution
[6] = target: FAM-labeled Ser5P CTD peptide (S. cerevisiae); experiment: as above
[7] = target: FAM-labeled Ser5P CTD peptide (S. cerevisiae); experiment: fluorescence polarisation; fluorescence anisotropy competition; preformed complex of 10 nM FAM-labeled Ser5P CTD and Nrd1p CID (120 μM) titrated with unlabeled Trf4p NIM peptide; KD calculated using 1.08 μM for CID-NIM
NIM N580A = target: T4, NIM N580A (Saccharomyces cerevisiae, not fully specified (N-terminus); also: FAM label (position not given here)); experiment: FP
T4 chain: DDDEDGYAPYTL

NIM D577R = target: T5, NIM D577R (Saccharomyces cerevisiae, not fully specified (N-terminus); also: FAM label (position not given here)); experiment: FP
T5 chain: DDDERGYNPYTL

[8] = target: B1; experiment: FP
[9] = target: T6, Nrd1p CID (residues 1-153) (S. cerevisiae, UniProt P53617 1-153); experiment: NMR solution structure; reconstituted complex of 15N,13C-labeled Nrd1p CID and unlabeled NIM peptide; 50 mM sodium phosphate pH 8.0, 100 mM NaCl, 20°C; details: both partners purified
T6 construct: also called Nrd1 CID
T6 sequence (looked up): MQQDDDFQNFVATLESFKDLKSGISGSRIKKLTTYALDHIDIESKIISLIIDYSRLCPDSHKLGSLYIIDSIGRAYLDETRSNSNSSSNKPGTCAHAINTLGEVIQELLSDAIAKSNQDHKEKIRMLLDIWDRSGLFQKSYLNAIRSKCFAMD

[10] = target: T7, Nrd1 (rNrd1);Nab3 (rNab3) (Saccharomyces cerevisiae;Saccharomyces …, UniProt P53617;P38996 1-575;1-802, |); experiment: EMSA; EMSA samples processed as described for the polyadenylation assays; buffer, salt, pH and temperature not in the material; n=3, single-site fit (Prism); details: protein: recombinant;recombinant; tags: ;C-terminal TEV-His6 (from pDL469 primers); copies: 1;1; single strand
T7 sequence 1: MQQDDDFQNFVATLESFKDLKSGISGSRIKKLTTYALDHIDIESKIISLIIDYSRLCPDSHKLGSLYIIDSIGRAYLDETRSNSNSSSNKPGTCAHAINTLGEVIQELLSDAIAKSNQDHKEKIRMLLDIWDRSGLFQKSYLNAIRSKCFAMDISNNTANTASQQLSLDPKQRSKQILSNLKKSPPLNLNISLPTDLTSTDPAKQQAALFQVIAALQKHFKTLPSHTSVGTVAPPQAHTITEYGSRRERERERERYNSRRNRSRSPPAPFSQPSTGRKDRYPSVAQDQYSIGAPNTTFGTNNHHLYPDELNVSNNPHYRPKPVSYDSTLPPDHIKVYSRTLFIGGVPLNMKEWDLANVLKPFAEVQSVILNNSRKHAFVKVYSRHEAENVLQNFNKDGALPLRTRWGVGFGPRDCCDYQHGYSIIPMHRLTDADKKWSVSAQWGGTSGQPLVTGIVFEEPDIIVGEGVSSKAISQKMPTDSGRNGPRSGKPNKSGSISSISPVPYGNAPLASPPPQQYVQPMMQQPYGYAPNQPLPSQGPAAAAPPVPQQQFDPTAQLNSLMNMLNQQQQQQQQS
T7 sequence 2: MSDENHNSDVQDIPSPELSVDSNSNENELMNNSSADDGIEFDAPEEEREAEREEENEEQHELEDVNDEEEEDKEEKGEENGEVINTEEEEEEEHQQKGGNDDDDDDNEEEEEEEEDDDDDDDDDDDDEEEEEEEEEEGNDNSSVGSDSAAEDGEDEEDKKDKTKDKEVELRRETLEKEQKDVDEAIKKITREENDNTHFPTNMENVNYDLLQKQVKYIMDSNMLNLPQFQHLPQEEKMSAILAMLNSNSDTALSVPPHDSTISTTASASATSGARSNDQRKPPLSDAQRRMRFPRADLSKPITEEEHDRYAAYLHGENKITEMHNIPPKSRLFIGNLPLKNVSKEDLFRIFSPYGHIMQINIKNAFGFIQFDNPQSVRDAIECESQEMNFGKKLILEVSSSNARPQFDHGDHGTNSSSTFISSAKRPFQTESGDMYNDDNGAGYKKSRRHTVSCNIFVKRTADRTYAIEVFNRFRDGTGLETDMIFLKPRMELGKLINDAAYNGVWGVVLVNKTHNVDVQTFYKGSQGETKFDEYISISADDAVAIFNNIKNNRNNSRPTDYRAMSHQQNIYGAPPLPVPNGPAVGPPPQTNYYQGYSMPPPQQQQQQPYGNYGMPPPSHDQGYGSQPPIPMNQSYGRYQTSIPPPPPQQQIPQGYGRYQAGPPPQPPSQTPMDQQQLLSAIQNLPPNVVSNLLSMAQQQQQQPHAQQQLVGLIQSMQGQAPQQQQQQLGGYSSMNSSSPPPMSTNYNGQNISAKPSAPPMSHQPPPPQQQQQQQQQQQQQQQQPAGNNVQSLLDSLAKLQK

[11] = target: T7, Nrd1 (rNrd1);Nab3 (rNab3); experiment: EMSA; Kd value not in the material (legend line truncated); EMSA samples processed as described for the polyadenylation assays; buffer, salt, pH and temperature not in the material; n=3, single-site fit (Prism); details: protein: recombinant;recombinant; tags: ;C-terminal TEV-His6 (from pDL469 primers); copies: 1;1; single strand
Trf4p NIM peptide = experiment: Equilibrium binding of Nrd1p CID mutants to the NIM peptide by fluorescence anisotropy (FA); parameters: species or system S. cerevisiae; details: Nrd1p CID variant vs wild-type
Description: Equilibrium binding experiments with both the protein and peptide mutants (in red and blue, respectively) were monitored by FA (for the binding isotherms, see Figure S5).
The importance of these contacts was further tested in a quantitative in vitro binding assay using FA.

Q: Which Kd [1] does the source give for FAM-labeled Trf4p NIM peptide Y579A here?
A: The Kd was 283 µM.

Q: How did the Kd (Nrd1p-Nab3p) turn out when “mutant RNA: mutant RNA with point mutations disrupting all motifs: GAAACGCAAUGAAUUAAGACUCGAUACAUUGCAAUUAGCU (RNA, backbone not given here)” was run?
A: The Kd was ~0.045 µM.

Q: For DDDEDGYNPYTL [Nrd1p CID (residues 1-153), P53617 S25R], which Kd [2] is on record?
A: Its Kd is 146 µM.

Q: How did the Kd [3] turn out when DDDRDGYNPYTL [FAM-labeled Trf4p NIM peptide E576R] was run?
A: The Kd was 4.8 µM.

Q: How did the Kd [3] turn out when DDDADGYNPYTL [FAM-labeled Trf4p NIM peptide E576A] was run?
A: The Kd was 3.2 µM.

Q: Which Kd [4] does the source give for DDDEDGYNPYTL [Nrd1p CID (residues 1-153), P53617 K21D] here?
A: Its Kd is 35.4 µM.

Q: B1 was tested. Which Kd [5] did it give?
A: The Kd was 1.08 µM.

Q: What about the Kd [6] of the same molecule?
A: The Kd was 130 µM.

Q: And the Kd [7]?
A: Its Kd is 120 µM.

Q: And the Kd (NIM N580A)?
A: Its Kd is 4.3 µM.

Q: And the Kd (NIM D577R)?
A: Its Kd is 24.2 µM.

B2: Nrd1p CID Ile130Lys (domain or fragment)
chain: MQQDDDFQNFVATLESFKDLKSGISGSRIKKLTTYALDHIDIESKIISLIIDYSRLCPDSHKLGSLYIIDSIGRAYLDETRSNSNSSSNKPGTCAHAINTLGEVIQELLSDAIAKSNQDHKEKIRMLLDKWDRSGLFQKSYLNAIRSKCFAMD
Q: How did the fold decrease in binding affinity against wild-type Nrd1p CID [5] turn out when B2 was run?
A: The fold decrease in binding affinity against wild-type Nrd1p CID was 20 fold.

Q: How did the Kd [8] turn out when DDDEDGANPYTL (not fully specified (N-terminus); also: FAM label (position not given here)) [Trf4p NIM peptide with alanine at Tyr579] was run?
A: Its Kd is 263 µM.

Q: For DDDRDGYNPYTL [Trf4p NIM peptide with Glu576 changed to arginine], which Kd [8] is on record?
A: Its Kd is 4.6 µM.

B3: 12 aa NIM peptide of Trf4p (peptide)
peptide: DDDEDGYNPYTL
notes: printed in three-letter code; also called Trf4p NIM; unlabeled NIM
Q: Does B3 bind [9]?
A: Result: binds

Q: GAAACGUAAUGAAUUAAGUCUUGAUAUAUAACAAUUAGCU (ssRNA) [Wt RNA (DL2974)] was tested. Which Kd [10] did it give?
A: The Kd was 0.0024 ± 0.0003 µM.

Q: Which “fold loss of affinity vs wt RNA” value [11] does the source give for GAAACGCAAUGAAUUAAGACUCGAUACAUUGCAAUUAGCU (ssRNA) [Mutant RNA (DL2975)] here?
A: Its value is ~20 fold lower affinity than wt RNA.

B4: I130K (protein)
chain: MQQDDDFQNFVATLESFKDLKSGISGSRIKKLTTYALDHIDIESKIISLIIDYSRLCPDSHKLGSLYIIDSIGRAYLDETRSNSNSSSNKPGTCAHAINTLGEVIQELLSDAIAKSNQDHKEKIRMLLDKWDRSGLFQKSYLNAIRSKCFAMD
Q: For B4, which “Decrease in binding affinity for NIM relative to wild-type CID (fold)” value (Trf4p NIM peptide) is on record?
A: The value was 20 fold.
